Source: US12138304

Legend:
soluble CD4 (sCD4) = soluble CD4 (sCD4) (UniProt P01730); assay: SPR, apparent affinity for sCD4
[1] = target: BG505 F14/Vt8 gp160 (cell surface expressed trimer) (HIV-1 (clade A BG505)); assay: flow cytometry, 293F cells expressing gp160; mean of 3 experiments ± SD
[2] = target: BG505 gp160 (cell surface expressed trimer) (HIV-1 (clade A BG505)); assay: as above
[3] = target: BG505 F14 gp160 (cell surface expressed trimer) (HIV-1 (clade A BG505)); assay: as above
[4] = target: BG505 Vt8 gp160 (cell surface expressed trimer) (HIV-1 (clade A BG505)); assay: as above
[5] = target: BG505 DS gp160 (cell surface expressed trimer) (HIV-1 (clade A BG505)); assay: as above
[6] = target: BG505 F14/Vt8 gp160 (cell surface expressed trimer) (HIV-1 (clade A BG505)); assay: flow cytometry, 293F cells expressing gp160, antibody 10 ug/mL
[7] = target: BG505 gp160 (cell surface expressed trimer) (HIV-1 (clade A BG505)); assay: as above
[8] = target: BG505 F14 gp160 (cell surface expressed trimer) (HIV-1 (clade A BG505)); assay: as above
[9] = target: BG505 Vt8 gp160 (cell surface expressed trimer) (HIV-1 (clade A BG505)); assay: as above
[10] = target: BG505 DS gp160 (cell surface expressed trimer) (HIV-1 (clade A BG505)); assay: as above
[11] = target: BG505 F14 SOSIP (HIV-1 (clade A BG505)); assay: BLI dose response, one site specific binding fit to the average of two experiments
[12] = target: BG505 Vt8 SOSIP (HIV-1 (clade A BG505)); assay: as above
[13] = target: BG505 SOSIP (HIV-1 (clade A BG505)); assay: as above
[14] = target: BG505 F14/Vt8 SOSIP (HIV-1 (clade A BG505)); assay: as above
[15] = target: BG505 Vt8 SOSIP (HIV-1 (clade A BG505)); assay: BLI dose response, antibody captured on anti-human Fc tips, SOSIP in solution
[16] = target: BG505 F14/Vt8 SOSIP (HIV-1 (clade A BG505)); assay: as above

BG505 SOSIP gave a Kd (soluble CD4 (sCD4)) of 67.9 nM.

For CH01 (antibody), the percentage of cells binding [1] was 22.1%, the percentage of cells binding [2] was 32.8% and the percentage of cells binding [3] was 37.7%. It also gave a percentage of cells binding [4] of 30.2% and a percentage of cells binding [5] of 20.8%.

Work on N6 (antibody) yielded an MFI [6] of 341 MFI, an MFI [7] of 457 MFI and an MFI [8] of 568 MFI. The MFI [9] was 378 MFI, the MFI [10] was 338 MFI and the percentage of cells binding [1] was 40.3%. For the same substance, the percentage of cells binding [2] was 45.3%, the percentage of cells binding [3] was 53.9% and the percentage of cells binding [4] was 44.4%. It also gave a percentage of cells binding [5] of 41%.

In the case of PG9 (antibody), the Kd [11] is reported as 45.9 nM, the Kd [12] is reported as 335 nM and the Kd [13] is reported as 444 nM. The Kd [14] was 337 nM.

For PGT121 (antibody), the Kd [11] was 219 nM, the Kd [12] was 260 nM and the Kd [13] was 222 nM. It also gave a Kd [14] of 262 nM.

PGT125 (antibody) gave a percentage of cells binding [1] of 37.9%, a percentage of cells binding [2] of 47.1% and a percentage of cells binding [3] of 54.7%. For the same substance, the percentage of cells binding [4] was 43.2% and the percentage of cells binding [5] was 38.2%.

PGT145 (antibody) gave a Kd [11] of 76.5 nM, a Kd [12] of 68 nM and a Kd [13] of 64.2 nM. It also gave a Kd [14] of 80.2 nM, a percentage of cells binding [1] of 34.8% and a percentage of cells binding [2] of 46%. The percentage of cells binding [3] was 48.8%, the percentage of cells binding [4] was 38.2% and the percentage of cells binding [5] was 35.4%.

Substance PGT151 (antibody) has a Kd [11] of 23.3 nM, a Kd [12] of 24 nM and a Kd [13] of 26.9 nM. It also gave a Kd [14] of 24 nM.

With VRC01 (antibody) the fold enhancement of affinity relative to BG505 SOSIP [15] was 2 fold, the fold enhancement of affinity relative to BG505 SOSIP [16] was 2 fold and the Kd [11] was 566 nM. For the same substance, the Kd [12] was 269 nM, the Kd [13] was 612 nM and the Kd [14] was 314 nM.

VRC26 (antibody) showed a Kd [11] of 50.2 nM, a Kd [12] of 60.4 nM and a Kd [13] of 67.6 nM. For the same substance, the Kd [14] was 50.6 nM.
